Measured values published in the nanobody polyreactivity screen of Harvey et al. (2022).

Assay: yeast display, Sf9 membrane polyspecificity reagent, FACS + sequencing; frameworks hold sequencing errors
Method in brief: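 After 36–48 hours of galactose induction, yeast (Saccharomyces cerevisiae BJ5465) displaying a synthetic nanobody library were stained at 4 °C for 1 hour with 10% biotinylated, detergent-solubilized Sf9 membrane reagent. Streptavidin microbeads enriched the stained cells before FACS sorting into low and high (top ~1%) gates on anti-HA and streptavidin fluorescence. Each clone's polyreactivity label reflects its gate of origin.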

Row | Sequence | polyreactivity (PSR sort gate)
1 | QVQLVESGRGLVQAGGSLRLSCAASGSIFGFYAMGWYREAPGKESELVAAINSGSTNYADSLKGRFTISRDNAKNTVYLQMNSLKPEDTAVYYCNKDKGVQSYVSSDARYNYWGQGTQVTVSS | low polyreactivity
2 | QVQLVESGGGLVQAGGSLRLSCAASGRIFPWNPMGWYRQAPGKERELVAGINNGDRTYYADSVKGRFTISRDNAKNTVYLQMNSLKPEDTAVYYCAVDTWYFLFQYGYYQEGDYWGQGTQVTVSS | low polyreactivity
3 | QVQLVESGGGLVQAGGSLRLSCAASGSIFPYNVMGWYRQAPGKERELVAAITTGGRTNYADSVKGRFTISRDNAKNTVYLQMNSLKPEDTAVYYCAARYGYYDSRRWYYYWGQGTQVTVSS | high polyreactivity
4 | QVQLVESGGGLVHAGGSLRLSCDASGLIFYGYAMGWYRQAPGKERQLVADITYSGGRTYYADSVKGRFSISRDNAKNTVYFQMHSLKAEDTAVYYCNARHRSHSNSQPGWKYVYWGQGTQVTVSS | low polyreactivity
5 | QVQLVESGGGLVQAGGSLRLSCAASGRTFFGYAMGWYRQAPGKERELVAAITTSGGSTYYADSVKGRFTISRDNAKNTVYLQMNSLKPEDTAVYYCAARAYYGYYYWGQGTQVTVSS | low polyreactivity
6 | QVQLVESGGGLVQAGGSLRLSCAASGSTFGTYAMGWYRQAPGKERELVATISIGGITYYADSVKGRFTISRDNAKYTVYLQMNSLKPEDTAVYYCAKDVTDPTSRSDPSGDDYWGQGTQVTVSS | low polyreactivity
7 | QVHLVESGGGLVQAGGSLRLSCAASGSIFKKNTLGWYRQAPGKERELVAVISSSGTRTYYADSVKGRFTISRDNAKNTVYLQMNSLKPEDTAVYYCARRAGGERDDYWGQGTQVTVSS | high polyreactivity
8 | QVQLVDSGGGLVQAGGSLRLSCAASGSTVAYYAMGLYRQPTVKERELVAAITRGGSTYYADSVKGRFTISRDNAMNTVYLHLNSLKPEDTAVYYCSAEFVVQYYVYGYTLGYDYWGQGTQVTVSS | high polyreactivity
9 | QVQLVESGGGLVQAGGSLRLSCAASGIIFYAYDMGWYRQAPGKERELVAAITFSAVSTYYADSVKGRFTISRDNAKNTVYLQMNSLKPEDTAVYYCAAEAYKHGVWDYDYWGQGTQVTVSS | low polyreactivity
10 | QVQLVESGGGLVQAGGSLRLSCASSGSTLYDNAKGWYRPAPGKERELVAAISKSGGRTYYADSVKGRFTISRDNAKNSVYLQMNSLKPEDTAVYYCNDVSSGGDYNYWGQGTQVTVSS | high polyreactivity
11 | QVQLVESGGGLVQAGGSLRLSCAASVRIFVDNTMGLYRQAPGKERELVAVITSGGSTNYADSVKGRFTISRDNAKNTVYLQMNSLKPEDTAVYYCATEPGGDRFDDRPFQYGYWGQGTQVTVSS | low polyreactivity
12 | QVQLVESGGGLVQAGGSLRLSCAASGSIFRIYAMGWYRQAPGKERELVAAISFSTGSRTYYADSVKGRFTISRDNAKNTVYLQMNSLKPEDTAVYYCNAESYYDYNYWGQGNQVTVSS | low polyreactivity
13 | QVQLVESGGGLVQAGGSLRLSCAASGFIFDYYAMGWYRQAPGKERELVASISGDDGRTYYADSVTGRFTISRDNAKNTVYLQMNSLKPEDTAVYDCNAEWGVLNYDYWGQGTQVTVSS | low polyreactivity
14 | QVQLVESGGGVVQAGGSLRLICAATGSIFGYAMGWYRQAPGKERELVGAISFSGVSTYYADSVMGRFTISRDNAKNTVYLEMNSLKPEDTAVYYSNAYSDGDEDYWGQGTQGTVSS | low polyreactivity
15 | QVQLVESGGGLVQAGGSLRLSCAASGSTFDLNAMGWYRQAPGKERELVARITSSTGRTFYADSVKGRFTISRDNAKNTVYLQMNSLKPEDTAVYYCAKDHASYSYWPSVLPYDHWGQGTQVTVSS | low polyreactivity
16 | QVQLVESGGGLVLAGGSLRLSCAASGSIFYVYAMGWYRQAPGKERELVASITWSGGRTYYADSVKGRFTISRDNAKNTVYLQMNSLKPEDTAVYYCNAVSFGARTTSYRYGSCGQGTQVTVSS | high polyreactivity
17 | QVQLVESGGGLVQAGGSLRLSCAASGFTIARNTMGWYRPAPGKERELVAAISGGGSTNYADSVKGRFTISRDNAKYTVYLQMNSLKPEDTAVYYCNADSNSDNNDYDYWGQGTQVTVSS | low polyreactivity
18 | QVELVESGGGLVQAGVSLRLSCAASGIISRGYAMGWYRQAPGKERELVAAISRSGGTTYYADSVKGRFTISRDNAKTTVYLQMNSLKPEDTAVYYCAARSKYFGYWGQGTQVTVSS | high polyreactivity
19 | QVQLVESGGGLVQAGGSLRLSCAASGRIFGPYTMGWYRQAPGKERELVAGITKSGSSTYYADSVKGRFTISRDNAKNTVYLQMNSLKPEDTAVYYCAADVYQVRGYYWGQGTQVTLSS | high polyreactivity
20 | QVQLVESGGGLVQAGGSLRLSCAASGSTFVENAMGWYRQAPGKERELVAAISSSGDSTFYADSVKGRFTISRDNAKNTVYLKMNSLKPEDTAVYYCAADRRINYDGLDMDYWGQGTQVTVSS | low polyreactivity
21 | QVQLVESGGGLVQAGGSLRLSCAASGSIFGLYAMGWYRQAPGKERELVATISKSGVSTYYADSVKGRFTISRDNAKNTVYLQMNSLKPEDTAVYYCNADISRDKDFDYWGQGTQVTVSW | low polyreactivity
22 | QVQRVESGGGLVQAGGSLGLSCAASGFTFIKYAMGWYRQAPGKEREFVASITYRGGSTYYADSVKGRLTISRDNAKNTVYLQMNSLKPEDTAVYYCAAGGPGRRYRVDYWGQGTQVTVSS | high polyreactivity

Row | Sequence | polyreactivity (PSR sort gate)
23 | QVQLQESGGGLMQAGGNLRLSCAASGYISTHYYMHWYRQAPGKERELVARIDDGAITNYADSVKGRFTISRDNAKNTVYLLMNSLKPEDTAVYYCAVYSGDDYYHDFWGQGTKVTVSS | low polyreactivity
24 | QVQLVESGGGLVQAGGSLRLSCAASGFIFQYYAMGWYRQAPGKERELVAVIRSGGSTYYADSVKGRFTISRDNAKNTVYLQMNSLKPEDTAVYYCNARRTYLDRYNYWGQGTQVTVSS | high polyreactivity
25 | QVQLVESGGGLVQAGGSLRLSCAASGITFSPYTMGCYRQAPGKERELVAAITDGAITYYADSVKGRFTISRDNAKNTVYLQMNSLKPEDTAVYYCAAAAWGTDPYSTDYATYDYWGQGTQVTVSS | low polyreactivity
26 | QVQLVESGGGLVQAGGSLRLSCAASGFTFLRYAMGWYRQAPGKERELVAAITGGGNTNYADSVKGRFTISRDNAKNTVYLQMNSLKPEDTAVYYCNARRRYWPYREDYWGQGTQVTVSS | high polyreactivity
27 | QVQLVESGGGLVQAGGSLRLSCAASGGIFAANAMGWYRQAPGTERELVAAITSVGSTYADSVKGRFTISRDNAKNTVYLQMNSLKPEDTAVSYCAADTESVIVWYEDDYWGQGTQVTVSS | low polyreactivity
28 | QVQLVESGGGLVQAGGSLRLSCAASGYTFVYNAMGWYRQAPGKERELVAAITWGGAGTYYADSVKGRFTISRDNAKNTVYLQMNSLKPEDTAVYYCAAPSPRSSAYTYRGDYWGQGTQVTVSS | low polyreactivity
29 | QVQLVESGGGLVQAGGSLRLSCAASGITFDLYDMGSYRQAPGKERELVAAITDADSTYYADSVKGRFTISRDNAKNTVLLQMNSLKPEDTAVYYCAATSYSHTKIRYDYWVQGTQVTVSS | low polyreactivity
30 | QVHLVESGGGLVQAGGSLRLSCAASGSIFIYNAMGWYRQAPGKERELVAAISWSGDSTYYADSVKGRFTISRDNAKNTVYLQMNSLKPEDTAVYYCNAKPSRKWGRGTGKQYDYWGQGTQVTVSS | high polyreactivity
31 | QVQLVESGGGLVQAGGSLRLSCAASGRTFSYNAMGWYRQAPGKERELVAAIDWSGGRTYYADSVKGRFTISRDNAKNTVYLQMNSLKPEDTAVYYCNKAVRSSYSAWQYGMYYWGQGTQVTVSS | high polyreactivity
32 | QVQLVESGGGLVQAGGSLRLSCAASGISFYRYAMGWYRQAPGKERELVAAITGSGDSTYYADSVKGRFSISRDNAKNTVYLQMNSLKPEDTAVYYCNTDYGRRYDYWGQGTQVTVSS | high polyreactivity
33 | QVQLVESGGGLVQAGGSLRLSCAASGSTFWSNVMGWYRQAPGKERELVSAISYGGVTTSYADSVKGRFTISRDNAKNTVYLQMNSLKPEDTAVYYCAAYNGAHSHFGYWGQGTQVTVSS | low polyreactivity
34 | QVQLVESGGGLVQAGGSLRLSCAASGRIFYPYAMAWYRQAPGKERELVAAISGSGARKYYADSVKGRFTISRDNAKNTVYLQMNSLKPEDTAVYYCARYQSNSDVYWGQGTQVTVSS | high polyreactivity
35 | QVQLVESGGGLVQAGGSLRLSCAASGLIFGYYAMGWYRQAPGKERELVARITRRGGSTYYADSVKGRFTISRDNAKNTVYLQMNSLKPEDTAVYDCAADWYSPRISREYDYWGQGTQVTVSS | high polyreactivity
36 | QVQHVESGGGLVQAGGSLRLTCAASGTIFRYYTMRWYRQAPGKERELVASISRGGNTYYADSVKGRFTISRENAKNTVYLPMNSLKPEDTAVSYCAALPGSFFQAHFYYWGQGTQVTVSS | low polyreactivity
37 | QFQLVESGGGLVQAGGSLRLSCAPSGGTFGSNAMGWYRQAPGKERELVAAISTTGGTTYYADSVKGRFTISRDNAKNTVYLQMNSLKPEDTAVYYCAKDGYVYGDWYTYAYVYWGQGTQVTVSS | low polyreactivity
38 | QVQLVESGGGLVQAGGSLRLSCAASGRTFWVNAMGWYRQAPGKERELVAGITFRGGSTYYADSVKGRFTISRDNAKNTVYLQMYSLKPEDTAVYYCAADVTFVYSGRRVHYFYWGQGTQVTVSS | high polyreactivity
39 | QVQLVESGGGLVQAGGSLRLSCAASGNTFTSYAMGWYRQAPGKERELVAAISASGSSTYYADSVKGRFTISRDNAKNTVYLQMNSLKPEDTAVYYCNAVKYRVESSYDYWGQGTQVTVSS | low polyreactivity
40 | QVQLVESGGGLVQAGGSLRLISAASGLIFKWYGMVWYRQAPGKEREFVAAITSSGTSTYYADSVKGRFTISRDNAKNTVDLHMNSLKPEDTAVYYCNARTKHRYEYDYWGQGTQVTVSS | high polyreactivity
41 | QVQLVESGGGLVQAGGSLRLSCAASGNTFYGYAMGWYRPAPGKERELVASITLSGDSTYYADSVKGRFTISRDNAKNTVYLQMNSLKPEDTAVYYCAGVYTYPLGYYHYTYDYWGQGTQVTVSS | low polyreactivity
42 | QVQLVESGGGLVQAGGSLRLSCAASGGIFSYNAMGWSRQAPGKEREWVASITGSGGSTYYADSVKGRFTISRGNAKNTVYLQMNSLKPEDTAVYYCAAQGYWTYWPYLLRLYDYWGQGTQVTVSS | low polyreactivity
43 | QVQLVESGGGLVQAGGSLRLSCAASGSIFGWYAMGWYRQAPGKERELVAAITFSSVSTYYADSVKGRFTISRDNAKNTVYLQMNSLKPEDTAVYYCAAVVYYTFDYWGQGTQVTVSS | low polyreactivity
